Results reported in patent publication US6429305.

Molecular target: growth hormone receptor on ZFL cells (zebrafish liver cell line) (zebrafish)
Assay: cell-based or functional assay

human growth hormone (from UniProt P01241 27-217) (ligand)
increase in cell proliferation relative to no growth hormone added (MTS-formazan conversion assay, ZFL cells): 13.7%
